The target in one assay is HLA-B*57:01. The experiment in a line: IEDB peptide-MHC binding, purified MHC/direct/fluorescence; filed as Kd, often an IC50 or EC50 that approximates it; ≥ and ≤ were set here for values at or beyond the usual limits of such assays.
The next assay addresses HLA-A*26:01. The assay is described as above.
The target of the next assay is HLA-A*24:03. The assay is described as above.
The next assay deals with HLA-B*27:03. Described as above.
In the next assay the target is HLA-B*46:01. Described as above.
The target of the next assay is HLA-B*51:01. The description is as above.
Another assay concerns the target HLA-B*15:01. Described as above.
In assay [1] the target is HLA-A*03:01. Described as above.
In a further assay the target is HLA-B*18:01. Described as above.
The next assay deals with HLA-A*02:12. The description is as above.
In another assay the target is HLA-A*02:11. Described as above.
In the next assay the target is HLA-A*02:19. Described as above.
A further assay concerns the target HLA-A*02:03. Described as above.
The target in the next assay is HLA-B*39:01. The description is as above.
For assay [2], the target named is HLA-A*02:01. The assay is described as above.
The target in another assay is HLA-A*69:01. Described as above.
Assay [3] concerns the target HLA-A*29:02. The description is as above. The settings on record: source organism: Vibrio vulnificus YJ016.
The target of another assay is HLA-A*02:16. The description is as above. The settings on record: source organism: Vibrio vulnificus YJ016.
The target of another assay is HLA-A*68:02. The assay is described as above. As to conditions: source organism: Giardia lamblia ATCC 50803.
The next assay addresses HLA-B*15:17. Described as above. As to conditions: source organism: Giardia lamblia ATCC 50803.
For another assay, the target named is HLA-C*14:02. Described as above.
A further assay has as its target HLA-A*31:01. The assay can be described thus: IEDB peptide-MHC binding, purified MHC/competitive/fluorescence; filed as Kd, often an IC50 or EC50 that approximates it; ≥ and ≤ were set here for values at or beyond the usual limits of such assays. The settings on record: source organism: Robiginitalea biformata HTCC2501.
The target of assay [4] is HLA-A*03:01. The assay is described as above. As to conditions: source organism: Robiginitalea biformata HTCC2501.
For assay [5], the target named is HLA-A*11:01. The description is as above. The settings on record: source organism: Robiginitalea biformata HTCC2501.
Another assay addresses HLA-B*73:01. Described as above.
For assay [6], the target named is HLA-B*08:01. The experiment in a line: IEDB peptide-MHC binding, purified MHC/direct/fluorescence; filed as Kd, often an IC50 or EC50 that approximates it; ≥ and ≤ were set here for values at or beyond the usual limits of such assays. As to conditions: source organism: Pseudomonas putida.
The target in the next assay is HLA-B*40:01. The assay is described as above. The settings on record: source organism: Pseudomonas putida.
Assay [7] concerns the target HLA-A*11:01. The description is as above. The settings on record: source organism: Pseudomonas putida.
The target in another assay is HLA-B*27:05. Described as above. The settings on record: source organism: Pseudomonas putida.
Another assay concerns the target HLA-A*30:01. The description is as above. As to conditions: source organism: Pseudomonas putida.
The next assay addresses HLA-B*58:01. The assay is described as above. As to conditions: source organism: Pseudomonas putida.
In assay [8] the target is HLA-B*07:02. The description is as above. As to conditions: source organism: Pseudomonas putida.
Assay [9] has as its target HLA-A*01:01. The description is as above. The settings on record: source organism: Pseudomonas putida.
Assay [10] deals with HLA-A*29:02. The experiment in a line: IEDB peptide-MHC binding, purified MHC/competitive/fluorescence; filed as Kd, often an IC50 or EC50 that approximates it; ≥ and ≤ were set here for values at or beyond the usual limits of such assays. As to conditions: source organism: Homo sapiens.
For assay [11], the target named is HLA-A*01:01. The assay is described as above. As to conditions: source organism: Homo sapiens.
The target in the next assay is HLA-C*15:02. The experiment in a line: IEDB peptide-MHC binding, purified MHC/direct/fluorescence; filed as Kd, often an IC50 or EC50 that approximates it; ≥ and ≤ were set here for values at or beyond the usual limits of such assays. As to conditions: source organism: Homo sapiens.
Assay [12] deals with HLA-A*02:01. The experiment in a line: IEDB peptide-MHC binding, purified MHC/competitive/fluorescence; filed as Kd, often an IC50 or EC50 that approximates it; ≥ and ≤ were set here for values at or beyond the usual limits of such assays. The settings on record: source organism: Vaccinia virus.
In assay [13] the target is HLA-B*08:01. The experiment in a line: IEDB peptide-MHC binding, purified MHC/competitive/radioactivity; filed as Kd, often an IC50 or EC50 that approximates it; ≥ and ≤ were set here for values at or beyond the usual limits of such assays. The settings on record: source organism: Vaccinia virus WR.
The target of a further assay is HLA-C*07:02. The assay can be described thus: IEDB peptide-MHC binding, purified MHC/direct/fluorescence; filed as Kd, often an IC50 or EC50 that approximates it; ≥ and ≤ were set here for values at or beyond the usual limits of such assays. The settings on record: source organism: Vaccinia virus.
In another assay the target is HLA-C*12:03. The description is as above. As to conditions: source organism: Vaccinia virus.
The target of assay [14] is HLA-B*07:02. The assay can be described thus: IEDB peptide-MHC binding, purified MHC/competitive/fluorescence; filed as Kd, often an IC50 or EC50 that approximates it; ≥ and ≤ were set here for values at or beyond the usual limits of such assays. As to conditions: source organism: Influenza A virus (A/Memphis/1/1978(H1N1)).
Setting [15] is: source organism: Yersinia pestis CA88-4125.
Where [16] appears, read: source organism: Vibrio vulnificus YJ016.
Setting [17] is: source organism: Giardia lamblia ATCC 50803.
Setting [18] is: source organism: Pseudomonas putida.

As to LPEAYQWHI, the Kd (usually a measure of binding affinity in units of concentration) in the assay with HLA-B*57:01 (setting [15]) is at least 20 µM; with HLA-A*26:01 (setting [15]), at least 20 µM; with HLA-A*24:03 (setting [15]) it was at least 20 µM; in the assay with HLA-B*27:03 (setting [15]), at least 20 µM; with HLA-B*46:01 (setting [15]), at least 20 µM; with HLA-B*51:01 (setting [15]), 0.484 µM. Further, the Kd with HLA-B*15:01 (setting [15]), with HLA-A*03:01 [1] (setting [15]), with HLA-B*18:01 (setting [15]), with HLA-A*02:12 (setting [15]), with HLA-A*02:11 (setting [15]) and with HLA-A*02:19 (setting [15]) was at least 20 µM each time. Also, the Kd with HLA-A*02:03 (setting [15]) and with HLA-B*39:01 (setting [15]) was at least 20 µM in each case.

For MKYVWPPIM, the Kd with HLA-B*57:01 (setting [16]), in the assay with HLA-A*02:01 [2] (setting [16]), with HLA-A*26:01 (setting [16]), in the assay with HLA-B*27:03 (setting [16]), in the assay with HLA-A*69:01 (setting [16]) and with HLA-B*46:01 (setting [16]) was at least 20 µM in each case. The Kd with HLA-B*51:01 (setting [16]), with HLA-B*15:01 (setting [16]), with HLA-A*03:01 [1] (setting [16]), with HLA-A*29:02 [3], in the assay with HLA-B*18:01 (setting [16]) and with HLA-A*02:12 (setting [16]) was at least 20 µM in each case. Also, the Kd with HLA-A*02:11 (setting [16]), in the assay with HLA-A*02:19 (setting [16]), with HLA-A*02:03 (setting [16]) and with HLA-A*02:16 was at least 20 µM each time.

For the sequence VLLISDPGL, the Kd with HLA-B*57:01 (setting [17]), in the assay with HLA-A*26:01 (setting [17]), with HLA-A*68:02, with HLA-A*24:03 (setting [17]), in the assay with HLA-B*27:03 (setting [17]) and in the assay with HLA-A*69:01 (setting [17]) was at least 20 µM in each case. The Kd is at least 20 µM in the assay with HLA-B*46:01 (setting [17]); 0.254 µM with HLA-B*15:17; at least 20 µM with HLA-B*15:01 (setting [17]); at least 20 µM in the assay with HLA-A*03:01 [1] (setting [17]); at least 20 µM with HLA-B*18:01 (setting [17]); at least 20 µM with HLA-A*02:12 (setting [17]). In addition, the Kd with HLA-A*02:11 (setting [17]), with HLA-A*02:03 (setting [17]) and with HLA-B*39:01 (setting [17]) was at least 20 µM each time.

In the case of ATPENAAAL, in the assay with HLA-C*14:02 (source organism: Mycobacterium tuberculosis variant bovis BCG str. Pasteur 1173P2), the dissociation constant (Kd) turned out to be 0.177 µM.

With PLAKGLFHK, the values for the Kd with HLA-A*31:01, with HLA-A*03:01 [4] and in the assay with HLA-A*11:01 [5] were at least 20 µM, 6.78 µM and 2.38 µM, respectively.

Turning to RVWRGEQGK, the Kd in the assay with HLA-B*73:01 (setting [18]), in the assay with HLA-B*08:01 [6], with HLA-A*02:01 [2] (setting [18]), in the assay with HLA-B*40:01, in the assay with HLA-A*26:01 (setting [18]) and with HLA-A*69:01 (setting [18]) was at least 20 µM throughout. Also, the Kd is at least 20 µM with HLA-B*15:01 (setting [18]); 0.246 µM with HLA-A*03:01 [1] (setting [18]); 0.0548 µM with HLA-A*11:01 [7]; 7.53 µM with HLA-B*27:05; 0.045 µM with HLA-A*30:01; at least 20 µM with HLA-B*58:01. For the same sequence, the Kd with HLA-B*07:02 [8] and with HLA-A*01:01 [9] was at least 20 µM each time.

In the case of HMMAVTLFY, the Kd with HLA-A*29:02 [10] is 0.0002 µM; in the assay with HLA-A*01:01 [11] it was 0.0574 µM; in the assay with HLA-C*14:02 (source organism: Homo sapiens), 0.516 µM; with HLA-C*15:02 it was 4.72 µM.

As to LLYAHINAL, the Kd in the assay with HLA-A*02:01 [12] was 0.0016 µM; in the assay with HLA-B*08:01 [13], 0.00137 µM; with HLA-C*07:02 it was 0.216 µM; with HLA-C*12:03 it was 0.222 µM.

In turn, VVAANRSAF had a Kd with HLA-C*14:02 (source organism: Mycobacterium tuberculosis CDC1551) of 0.103 µM.

Sequence DPLVVAASI gave a Kd with HLA-B*07:02 [14] of at least 20 µM.

The sequence YRAKVKPWA had a Kd in the assay with HLA-B*73:01 (source organism: Francisella tularensis subsp. tularensis FSC198) of 4.5 µM.

These data come from the Immune Epitope Database (IEDB).
